This is an account of results in US20210388087A1 (Chugai, published 2021).

B1: CE115HA000 Y97S one-arm antibody (antibody, human IgG1, kappa, L234A L235A, N297A, name in Kabat numbering)
heavy: QVQLVESGGGVVQPGRSLRLSCAASGFTFSNAWMHWVRQAPGKGLEWVAQIKAKSNNYATYYAESVKGRFTISRDDSKNSLYLQMNSLKTEDTAVYYCRYVHSGAYYGVDAWGQGTTVTVSSASTKGPSVFPLAPSSKSTSGGTAALGCLVKDYFPEPVTVSWNSGALTSGVHTFPAVLQSSGLYSLSSVVTVPSSSLGTQTYICNVNHKPSNTKVDKKVEPKSCDKTHTCPPCPAPEAAGGPSVFLFPPKPKDTLMISRTPEVTCVVVDVSHEDPEVKFNWYVDGVEVHNAKTKPREEQYASTYRVVSVLTVLHQDWLNGKEYKCKVSNKALPAPIEKTISKAKGQPREPQVYTLPPSRCELTKNQVSLSCAVKGFYPSDIAVEWESNGQPENNYKTTPPVLDSDGSFFLVSKLTVDKSRWQQGNVFSCSVMHEALHNHYTQKSLSLSPDYKDDDDK
chain: EPKSSDKTHTCPPCPAPELLGGPSVFLFPPKPKDTLMISRTPEVTCVVVDVSHEDPEVKFNWYVDGVEVHNAKTKPREEQYNSTYRVVSVLTVLHQDWLNGKEYKCKVSNKALPAPIEKTISKAKGQPREPQVCTLPPSRDELTKNQVSLWCLVKGFYPSDIAVEWESNGQPENNYKTTPPVLDSDGSFFLYSKLTVDKSRWQQGNVFSCSVMHEALHNRYTQKSLSLSP
light: DIVMTQSPLSLPVTPGEPASISCRSSQSLVHSNRNTYLHWYQQKPGQAPRLLIYKVSNRFSGVPDRFSGSGSGTDFTLKISRVEAEDVGVYYCGQGTQVPYTFGQGTKLEIKRTVAAPSVFIFPPSDEQLKSGTASVVCLLNNFYPREAKVQWKVDNALQSGNSQESVTEQDSKDSTYSLSSTLTLSKADYEKHKVYACEVTHQGLSSPVTKSFNRGEC
B2: CE115HA000 Y100K one-arm antibody (antibody, human IgG1, kappa, L234A L235A, N297A, name in Kabat numbering)
heavy: QVQLVESGGGVVQPGRSLRLSCAASGFTFSNAWMHWVRQAPGKGLEWVAQIKAKSNNYATYYAESVKGRFTISRDDSKNSLYLQMNSLKTEDTAVYYCRYVHYGAKYGVDAWGQGTTVTVSSASTKGPSVFPLAPSSKSTSGGTAALGCLVKDYFPEPVTVSWNSGALTSGVHTFPAVLQSSGLYSLSSVVTVPSSSLGTQTYICNVNHKPSNTKVDKKVEPKSCDKTHTCPPCPAPEAAGGPSVFLFPPKPKDTLMISRTPEVTCVVVDVSHEDPEVKFNWYVDGVEVHNAKTKPREEQYASTYRVVSVLTVLHQDWLNGKEYKCKVSNKALPAPIEKTISKAKGQPREPQVYTLPPSRCELTKNQVSLSCAVKGFYPSDIAVEWESNGQPENNYKTTPPVLDSDGSFFLVSKLTVDKSRWQQGNVFSCSVMHEALHNHYTQKSLSLSPDYKDDDDK
chain: EPKSSDKTHTCPPCPAPELLGGPSVFLFPPKPKDTLMISRTPEVTCVVVDVSHEDPEVKFNWYVDGVEVHNAKTKPREEQYNSTYRVVSVLTVLHQDWLNGKEYKCKVSNKALPAPIEKTISKAKGQPREPQVCTLPPSRDELTKNQVSLWCLVKGFYPSDIAVEWESNGQPENNYKTTPPVLDSDGSFFLYSKLTVDKSRWQQGNVFSCSVMHEALHNRYTQKSLSLSP
light: DIVMTQSPLSLPVTPGEPASISCRSSQSLVHSNRNTYLHWYQQKPGQAPRLLIYKVSNRFSGVPDRFSGSGSGTDFTLKISRVEAEDVGVYYCGQGTQVPYTFGQGTKLEIKRTVAAPSVFIFPPSDEQLKSGTASVVCLLNNFYPREAKVQWKVDNALQSGNSQESVTEQDSKDSTYSLSSTLTLSKADYEKHKVYACEVTHQGLSSPVTKSFNRGEC
B3: CE115HA000 Y100G one-arm antibody (antibody, human IgG1, kappa, L234A L235A, N297A, name in Kabat numbering)
heavy: QVQLVESGGGVVQPGRSLRLSCAASGFTFSNAWMHWVRQAPGKGLEWVAQIKAKSNNYATYYAESVKGRFTISRDDSKNSLYLQMNSLKTEDTAVYYCRYVHYGAGYGVDAWGQGTTVTVSSASTKGPSVFPLAPSSKSTSGGTAALGCLVKDYFPEPVTVSWNSGALTSGVHTFPAVLQSSGLYSLSSVVTVPSSSLGTQTYICNVNHKPSNTKVDKKVEPKSCDKTHTCPPCPAPEAAGGPSVFLFPPKPKDTLMISRTPEVTCVVVDVSHEDPEVKFNWYVDGVEVHNAKTKPREEQYASTYRVVSVLTVLHQDWLNGKEYKCKVSNKALPAPIEKTISKAKGQPREPQVYTLPPSRCELTKNQVSLSCAVKGFYPSDIAVEWESNGQPENNYKTTPPVLDSDGSFFLVSKLTVDKSRWQQGNVFSCSVMHEALHNHYTQKSLSLSPDYKDDDDK
chain: EPKSSDKTHTCPPCPAPELLGGPSVFLFPPKPKDTLMISRTPEVTCVVVDVSHEDPEVKFNWYVDGVEVHNAKTKPREEQYNSTYRVVSVLTVLHQDWLNGKEYKCKVSNKALPAPIEKTISKAKGQPREPQVCTLPPSRDELTKNQVSLWCLVKGFYPSDIAVEWESNGQPENNYKTTPPVLDSDGSFFLYSKLTVDKSRWQQGNVFSCSVMHEALHNRYTQKSLSLSP
light: DIVMTQSPLSLPVTPGEPASISCRSSQSLVHSNRNTYLHWYQQKPGQAPRLLIYKVSNRFSGVPDRFSGSGSGTDFTLKISRVEAEDVGVYYCGQGTQVPYTFGQGTKLEIKRTVAAPSVFIFPPSDEQLKSGTASVVCLLNNFYPREAKVQWKVDNALQSGNSQESVTEQDSKDSTYSLSSTLTLSKADYEKHKVYACEVTHQGLSSPVTKSFNRGEC
B4: CE115HA000 Y100A one-arm antibody (antibody, human IgG1, kappa, L234A L235A, N297A, name in Kabat numbering)
heavy: QVQLVESGGGVVQPGRSLRLSCAASGFTFSNAWMHWVRQAPGKGLEWVAQIKAKSNNYATYYAESVKGRFTISRDDSKNSLYLQMNSLKTEDTAVYYCRYVHYGAAYGVDAWGQGTTVTVSSASTKGPSVFPLAPSSKSTSGGTAALGCLVKDYFPEPVTVSWNSGALTSGVHTFPAVLQSSGLYSLSSVVTVPSSSLGTQTYICNVNHKPSNTKVDKKVEPKSCDKTHTCPPCPAPEAAGGPSVFLFPPKPKDTLMISRTPEVTCVVVDVSHEDPEVKFNWYVDGVEVHNAKTKPREEQYASTYRVVSVLTVLHQDWLNGKEYKCKVSNKALPAPIEKTISKAKGQPREPQVYTLPPSRCELTKNQVSLSCAVKGFYPSDIAVEWESNGQPENNYKTTPPVLDSDGSFFLVSKLTVDKSRWQQGNVFSCSVMHEALHNHYTQKSLSLSPDYKDDDDK
chain: EPKSSDKTHTCPPCPAPELLGGPSVFLFPPKPKDTLMISRTPEVTCVVVDVSHEDPEVKFNWYVDGVEVHNAKTKPREEQYNSTYRVVSVLTVLHQDWLNGKEYKCKVSNKALPAPIEKTISKAKGQPREPQVCTLPPSRDELTKNQVSLWCLVKGFYPSDIAVEWESNGQPENNYKTTPPVLDSDGSFFLYSKLTVDKSRWQQGNVFSCSVMHEALHNRYTQKSLSLSP
light: DIVMTQSPLSLPVTPGEPASISCRSSQSLVHSNRNTYLHWYQQKPGQAPRLLIYKVSNRFSGVPDRFSGSGSGTDFTLKISRVEAEDVGVYYCGQGTQVPYTFGQGTKLEIKRTVAAPSVFIFPPSDEQLKSGTASVVCLLNNFYPREAKVQWKVDNALQSGNSQESVTEQDSKDSTYSLSSTLTLSKADYEKHKVYACEVTHQGLSSPVTKSFNRGEC
B5: CE115HA000 Y100L one-arm antibody (antibody, human IgG1, kappa, L234A L235A, N297A, name in Kabat numbering)
heavy: QVQLVESGGGVVQPGRSLRLSCAASGFTFSNAWMHWVRQAPGKGLEWVAQIKAKSNNYATYYAESVKGRFTISRDDSKNSLYLQMNSLKTEDTAVYYCRYVHYGALYGVDAWGQGTTVTVSSASTKGPSVFPLAPSSKSTSGGTAALGCLVKDYFPEPVTVSWNSGALTSGVHTFPAVLQSSGLYSLSSVVTVPSSSLGTQTYICNVNHKPSNTKVDKKVEPKSCDKTHTCPPCPAPEAAGGPSVFLFPPKPKDTLMISRTPEVTCVVVDVSHEDPEVKFNWYVDGVEVHNAKTKPREEQYASTYRVVSVLTVLHQDWLNGKEYKCKVSNKALPAPIEKTISKAKGQPREPQVYTLPPSRCELTKNQVSLSCAVKGFYPSDIAVEWESNGQPENNYKTTPPVLDSDGSFFLVSKLTVDKSRWQQGNVFSCSVMHEALHNHYTQKSLSLSPDYKDDDDK
chain: EPKSSDKTHTCPPCPAPELLGGPSVFLFPPKPKDTLMISRTPEVTCVVVDVSHEDPEVKFNWYVDGVEVHNAKTKPREEQYNSTYRVVSVLTVLHQDWLNGKEYKCKVSNKALPAPIEKTISKAKGQPREPQVCTLPPSRDELTKNQVSLWCLVKGFYPSDIAVEWESNGQPENNYKTTPPVLDSDGSFFLYSKLTVDKSRWQQGNVFSCSVMHEALHNRYTQKSLSLSP
light: DIVMTQSPLSLPVTPGEPASISCRSSQSLVHSNRNTYLHWYQQKPGQAPRLLIYKVSNRFSGVPDRFSGSGSGTDFTLKISRVEAEDVGVYYCGQGTQVPYTFGQGTKLEIKRTVAAPSVFIFPPSDEQLKSGTASVVCLLNNFYPREAKVQWKVDNALQSGNSQESVTEQDSKDSTYSLSSTLTLSKADYEKHKVYACEVTHQGLSSPVTKSFNRGEC
B6: CE115HA000 Y100D one-arm antibody (antibody, human IgG1, kappa, L234A L235A, N297A, name in Kabat numbering)
heavy: QVQLVESGGGVVQPGRSLRLSCAASGFTFSNAWMHWVRQAPGKGLEWVAQIKAKSNNYATYYAESVKGRFTISRDDSKNSLYLQMNSLKTEDTAVYYCRYVHYGADYGVDAWGQGTTVTVSSASTKGPSVFPLAPSSKSTSGGTAALGCLVKDYFPEPVTVSWNSGALTSGVHTFPAVLQSSGLYSLSSVVTVPSSSLGTQTYICNVNHKPSNTKVDKKVEPKSCDKTHTCPPCPAPEAAGGPSVFLFPPKPKDTLMISRTPEVTCVVVDVSHEDPEVKFNWYVDGVEVHNAKTKPREEQYASTYRVVSVLTVLHQDWLNGKEYKCKVSNKALPAPIEKTISKAKGQPREPQVYTLPPSRCELTKNQVSLSCAVKGFYPSDIAVEWESNGQPENNYKTTPPVLDSDGSFFLVSKLTVDKSRWQQGNVFSCSVMHEALHNHYTQKSLSLSPDYKDDDDK
chain: EPKSSDKTHTCPPCPAPELLGGPSVFLFPPKPKDTLMISRTPEVTCVVVDVSHEDPEVKFNWYVDGVEVHNAKTKPREEQYNSTYRVVSVLTVLHQDWLNGKEYKCKVSNKALPAPIEKTISKAKGQPREPQVCTLPPSRDELTKNQVSLWCLVKGFYPSDIAVEWESNGQPENNYKTTPPVLDSDGSFFLYSKLTVDKSRWQQGNVFSCSVMHEALHNRYTQKSLSLSP
light: DIVMTQSPLSLPVTPGEPASISCRSSQSLVHSNRNTYLHWYQQKPGQAPRLLIYKVSNRFSGVPDRFSGSGSGTDFTLKISRVEAEDVGVYYCGQGTQVPYTFGQGTKLEIKRTVAAPSVFIFPPSDEQLKSGTASVVCLLNNFYPREAKVQWKVDNALQSGNSQESVTEQDSKDSTYSLSSTLTLSKADYEKHKVYACEVTHQGLSSPVTKSFNRGEC

The assay deals with T1, CD3 epsilon homodimer protein (UniProt P07766 23-126).
T1 construct: immobilized on Sensor chip CM4 by amine coupling; also called CD3 (CD3 epsilon)
T1 sequence (P07766 23-126): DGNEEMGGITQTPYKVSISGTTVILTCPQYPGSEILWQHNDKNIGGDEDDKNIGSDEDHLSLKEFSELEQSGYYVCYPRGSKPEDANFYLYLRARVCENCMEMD
Briefly: SPR (Biacore T200), CD3 epsilon homodimer on CM4 chip, one-arm antibody as analyte, 25 C.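 Also: homodimer attached to the sensor surface via amine coupling, HBS-EP+ used as running buffer during binding runs.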
B1: the “ratio of amounts bound (altered form / CE115HA000)” value was 0.18.
In the case of B2, the “ratio of amounts bound (altered form / CE115HA000)” value is 1.07.
In the case of B3 it was 1.07.
In the case of B4 it was 0.9; in that of B5, 0.7.
Then B6, with 0.52.
